Assay results as given in paper PMC7884711, “Identification of efficient prokaryotic cell-penetrating peptides with applications in bacterial biotechnology” (Communications Biology, 2021).
Where no end group is shown, it is not given here.

B1: I-SceI (No CPP): meganuclease I-SceI without CPP, control (protein, UniProt P03882 1-235, looked up)
Intron-encoded endonuclease …: MKNIKKNQVMNLGPNSKLLKEYKSQLIELNIEQFEAGIGLILGDAYIRSRDEGKTYCMQFEWKNKAYMDHVCLLYDQWVLSPPHKKERVNHLGNLVITWGAQTFKHQAFNKLANLFIVNNKKTIPNNLVENYLTPMSLAYWFMDDGGKWDYNKNSTNKSIVLNTQSFTFEEVEYLVKGLRNKFQLNCYVKINKNKPIIYIDSMSYLIFYNLIKPYLIPQMMYKLPNTISSETFLK

What was measured:
[1] = system: E. coli DH5α cells; test: Penetration efficiency of TAMRA-labeled CPPs, chemical (CaCl2) treatment method, flow cytometry; format: cell-based, Escherichia coli; details: for Cell penetration efficiency (TAMRA fluorescence), Chemical (CaCl2) method - Tris buffer / Cell penetration efficiency (TAMRA fluorescence), Chemical (CaCl2) method - DW: 50 mM CaCl2-treated E. coli DH5α, 5 μg TAMRA-CPP; for Cell penetration efficiency (TAMRA fluorescence), Chemical (CaCl2) method - Tris buffer: 20 mM Tris-Cl pH 7.5, 1 h; for Cell penetration efficiency (TAMRA fluorescence), Chemical (CaCl2) method - DW: 5 × 10^7 cells/50 μL, distilled water, 1 h; for Penetration efficiency (TAMRA FI): TAMRA fluorescence intensity in E. coli, library screen of 98 CPPs
Description: (§1) (Fig. 2a). […] First, we prepared electrocompetent and chemically competent cells.

[2] = system: E. coli DH5α cells; test: Penetration efficiency of TAMRA-labeled CPPs, non-treated cells (control method), flow cytometry; details: 5 μg TAMRA-labeled CPP (0.1 μg/μL), 1 h, PBS washes
Protocol: For the evaluation and optimization of the electroporation-based method, five efficient CPPs were selected from the previous reports[45],[46] […] The CPP were labeled with TAMRA to trace their penetration into the cytoplasm. First, we prepared electrocompetent and chemically competent cells[46]. As a negative control, we also prepared non-treated cells. After treating the five TAMRA-labeled CPP peptides, either distilled water or 20 mM Tris-Cl (pH = 7.5) was added as a buffer to the E. coli–CPP mixture and incubated at 37 °C for 1 h. After washing the cells, their fluorescence intensities were measured by flow cytometry to quantify CPP delivery efficiency.
Prepared cells at a density of 5 × 10^7 cells/50 μL were treated with 5 μg of TAMRA-labeled CPPs (0.1 μg/μL) and incubated for 1 h at room temperature. After incubation, the cells were washed with 1 × PBS and centrifuged at 7000 rpm for 10 min three times to remove extracellular CPPs.
Then, the cells were washed with 1 × PBS and centrifuged at 7000 rpm for 10 min three times. The fluorescence intensity of the CPPs in E. coli cells was quantitatively measured using a Guava EasyCyte flow cytometer (Millipore, Darmstadt, Germany) with an excitation wavelength of 547 nm and an emission wavelength of 580 nm.

[3] = system: E. coli DH5α cells; test: Inhibition of bacterial cell growth by CPPs (Max OD600 relative to control); format: cell-based, Escherichia coli; details: for Max OD (%) (Figure 3f): E. coli DH5α diluted 1/1000 in LB, 5 μg TAMRA-CPP (0.1 μg/μL), OD600 monitored 18 h, max OD of treated cells / max OD of control cells; for Growth rate (%): E. coli growth with CPP, relative to control; for Anti-bacterial activity: class (Cytotoxic / Safe), cutoff of 50%
Protocol: E. coli DH5α cells were grown until OD600 = 1 at 37 °C with shaking at 200 rpm. […] Then, cell growth (OD600) was monitored for 18 h by using the Synergy^TM H1 hybrid multi-mode microplate reader (BioTek, Vermont, USA). As a control, we used E. coli cells that were not treated with CPPs.

[4] = system: E. coli DH5α cells; test: Penetration efficiency of TAMRA-labeled CPPs, electroporation-based method, flow cytometry; format: cell-based, Escherichia coli; details: electrocompetent E. coli DH5α, 5 μg TAMRA-CPP, electroporation 1.8 kV; for Cell penetration efficiency (TAMRA fluorescence), Electrooration - Tris buffer: 20 mM Tris-HCl pH 7.5, 1 h; for Cell penetration efficiency (TAMRA fluorescence), Electrooration - DW: distilled water, 1 h
Description: as §1

[5] = system: E. coli carrying target plasmid with I-SceI recognition site; test: Plasmid removal assay using CPP-conjugated I-SceI; format: cell-based, Escherichia coli
Description: To investigate the applicability of CPPs in plasmid removal using a CPP-conjugated I-SceI restriction enzyme, we constructed three different target plasmids containing a different replication origin: a pSC101 origin (low-copy number), ColE1 origin (mid-copy number), and RSF1030 origin (high-copy number). Then, an I-SceI recognition site was inserted into the target plasmids. In addition, for the selection of plasmid-containing cells and counterselection of plasmid-free cells, the tetA gene (tetracycline resistance gene) was introduced into the target plasmids. The selection and counterselection were conducted by using tetracycline and NiCl2, respectively.
For the plasmid removal experiment, three E. coli strains carrying a target plasmid with a different replication origin were prepared. The plasmids contained an I-SceI restriction site and a replication origin (pSC101, ColE1, or RSF1030). […] Then, the buffer was replaced with 1 × CutSmart buffer, because I-SceI requires the Mg^2+ included in the CutSmart buffer[64] as a cofactor. The cells were further incubated at 37 °C for 2 h and then spread on LB agar plates containing 2 mM NiCl2. The colonies grown on NiCl2-containing plates were transferred to an LB agar plate and a tetracycline-containing LB agar plate in order to confirm whether the plasmids were completely removed from the cells.

| Molecule | Cell penetration efficiency (TAMRA fluorescence), Chemical (CaCl2) method - Tris buffer ([1]; replicate 1) [A.U.] | Cell penetration efficiency (TAMRA fluorescence), Chemical (CaCl2) method - Tris buffer ([1]; replicate 2) [A.U.] | Cell penetration efficiency (TAMRA fluorescence), Chemical (CaCl2) method - Tris buffer ([1]; replicate 3) [A.U.] | Cell penetration efficiency (TAMRA fluorescence), Chemical (CaCl2) method - DW ([1]; replicate 1) [A.U.] | Cell penetration efficiency (TAMRA fluorescence), Chemical (CaCl2) method - DW ([1]; replicate 2) [A.U.] | Cell penetration efficiency (TAMRA fluorescence), Chemical (CaCl2) method - DW ([1]; replicate 3) [A.U.] | Penetration efficiency (TAMRA FI) [1] | Cell penetration efficiency (TAMRA fluorescence), Control ([2]; replicate 1) [A.U.] | Cell penetration efficiency (TAMRA fluorescence), Control ([2]; replicate 2) [A.U.] | Cell penetration efficiency (TAMRA fluorescence), Control ([2]; replicate 3) [A.U.] | Max OD (%) (Figure 3f) ([3]; replicate 1) | Max OD (%) (Figure 3f) ([3]; replicate 2) | Max OD (%) (Figure 3f) ([3]; replicate 3) | Growth rate (%) [3] [%] | Anti-bacterial activity [3] | Cell penetration efficiency (TAMRA fluorescence), Electrooration - Tris buffer ([4]; replicate 1) [A.U.] | Cell penetration efficiency (TAMRA fluorescence), Electrooration - Tris buffer ([4]; replicate 2) [A.U.] | Cell penetration efficiency (TAMRA fluorescence), Electrooration - Tris buffer ([4]; replicate 3) [A.U.] | Cell penetration efficiency (TAMRA fluorescence), Electrooration - DW ([4]; replicate 1) [A.U.] | Cell penetration efficiency (TAMRA fluorescence), Electrooration - DW ([4]; replicate 2) [A.U.] | other results |
| --- | --- | --- | --- | --- | --- | --- | --- | --- | --- | --- | --- | --- | --- | --- | --- | --- | --- | --- | --- | --- | --- |
| R9-TAT (GRRRRRRRRRPPQ; also: TAMRA label, site not given here) [CPP 14, TAMRA-labeled CPP of the 98-CPP library, one of five used to evaluate delivery methods] | 247.778 | 278.483 | 297.356 | 1405.86 | 216.364 | 286.408 | 1704.74 | 29.4004 | 32.4749 | 29.0426 | 76.3087 | 63.2803 | 64.6762 | 68.0884 | Safe | 1652.65 | 2400.94 | 906.944 | 871.282 | 655.834 | Cell penetration efficiency (TAMRA fluorescence), Electrooration - Tris buffer ([4]; replicate 4): 1858.43 A.U.; Cell penetration efficiency (TAMRA fluorescence), Electrooration - DW ([4]; replicate 3): 728.231 A.U. |
| Rev(34-50) (TRQARRNRRRRWRERQR; also: TAMRA label, site not given here) [CPP 15, TAMRA-labeled CPP of the 98-CPP library, one of five used to evaluate delivery methods] | 103.028 | 97.4338 | 68.163 | 228.73 | 679.736 | 805.596 | 1458.36 | 29.8568 | 31.0533 | 36.163 | 73.0516 | 73.4005 | 79.5657 | 75.3393 | Safe | 1419.77 | 1626.5 | 1629.96 | 772.285 | 531.205 | Cell penetration efficiency (TAMRA fluorescence), Electrooration - Tris buffer ([4]; replicate 4): 1157.23 A.U.; Cell penetration efficiency (TAMRA fluorescence), Electrooration - DW ([4]; replicate 3): 564.956 A.U. |
| ppTG1 (GLFKALLKLLKSLWKLLLKA; also: TAMRA label, position not given here) [CPP 16, TAMRA-labeled CPP of the 98-CPP library, one of five used to evaluate delivery methods] | 251.992 | 38.28 | 55.663 | 201.023 | 237.812 | 176.507 | 130.52 | 21.8791 | 18.0245 | 15.0301 | 61.1865 | 69.0965 | 63.3967 | 64.5599 | Safe | 299.308 | 307.97 | 322.066 | 116.793 | 316.678 | Cell penetration efficiency (TAMRA fluorescence), Chemical (CaCl2) method - Tris buffer ([1]; replicate 4): 85.7449 A.U.; Cell penetration efficiency (TAMRA fluorescence), Chemical (CaCl2) method - Tris buffer ([1]; replicate 5): 220.921 A.U.; Cell penetration efficiency (TAMRA fluorescence), Electrooration - DW ([4]; replicate 3): 302.379 A.U. |
| B1 |  |  |  |  |  |  |  |  |  |  |  |  |  |  |  |  |  |  |  |  | Plasmid removal efficiency (%) ([5]; plasmid with ColE1 origin (15–20 copies), same protocol, replicate 1): 19.3%; Plasmid removal efficiency (%) ([5]; plasmid with ColE1 origin (15–20 copies), same protocol, replicate 2): 13.3%; Plasmid removal efficiency (%) ([5]; plasmid with ColE1 origin (15–20 copies), same protocol, replicate 3): 14.8%; Plasmid removal efficiency (%) ([5]; plasmid with RSF1030 origin (>100 copies), same protocol, replicate 1): 17.57%; Plasmid removal efficiency (%) ([5]; plasmid with RSF1030 origin (>100 copies), same protocol, replicate 2): 16.88%; Plasmid removal efficiency (%) ([5]; plasmid with RSF1030 origin (>100 copies), same protocol, replicate 3): 17.79%; Plasmid removal efficiency (%) ([5]; plasmid with pSC101 origin (~5 copies), 50 μL protein (0.05 μg/μL), electroporation, Tris-HCl pH 7.5 3 h, CutSmart 2 h 37 °C, 2 mM NiCl2 selection, replicate 1): 16.6%; Plasmid removal efficiency (%) ([5]; plasmid with pSC101 origin (~5 copies), 50 μL protein (0.05 μg/μL), electroporation, Tris-HCl pH 7.5 3 h, CutSmart 2 h 37 °C, 2 mM NiCl2 selection, replicate 2): 15%; Plasmid removal efficiency (%) ([5]; plasmid with pSC101 origin (~5 copies), 50 μL protein (0.05 μg/μL), electroporation, Tris-HCl pH 7.5 3 h, CutSmart 2 h 37 °C, 2 mM NiCl2 selection, replicate 3): 15.64% |
